Measurements: PMC7113306
Where two headings read alike, the source gives them in different places.

What was measured:
[1] = target: ALK1-Fc ECD (Homo sapiens) (UniProt P37023); conditions: cited from earlier work
[2] = target: ALK1-Fc (ALK1 extracellular domain-Fc fusion protein) (UniProt P37023); assay: SPR; Biacore T100; ALK1-Fc (800 RU) or ALK1 monomer (270 RU) amine-coupled to a CM5 chip; ligands injected at 30 μl min^-1 in 0.01 M HEPES pH 7.4, 0.5 M NaCl, 3 mM EDTA, 0.5 mg ml^-1 BSA, 0.01% P20, 25 °C; 1:1 model with mass transport limitations; KD = kd/ka
Sequence of ALK1-Fc (ALK1 extracellular domain-Fc fusion protein) (P37023 22-118): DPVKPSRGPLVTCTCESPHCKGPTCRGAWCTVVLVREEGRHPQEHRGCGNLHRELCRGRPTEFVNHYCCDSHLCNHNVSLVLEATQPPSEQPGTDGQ

[3] = target: ALK1-Fc ECD (Homo sapiens) (UniProt P37023); conditions: cited from earlier work; remark: listed apart in the source

Sequence of ALK1-Fc ECD (Homo sapiens) (P37023 22-118): as above
Sequence of BMP9 (Q9UK05 320-429): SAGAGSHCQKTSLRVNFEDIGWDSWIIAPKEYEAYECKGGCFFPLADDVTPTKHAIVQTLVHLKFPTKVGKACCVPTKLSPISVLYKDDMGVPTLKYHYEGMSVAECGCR
Sequence of BMP10 (O95393 317-424): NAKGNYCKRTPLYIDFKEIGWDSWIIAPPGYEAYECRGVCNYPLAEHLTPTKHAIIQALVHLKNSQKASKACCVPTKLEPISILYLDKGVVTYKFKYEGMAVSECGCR

Row | Substance | Kd [2] [nM] | other results
1 | BMP9 (from UniProt Q9UK05) |  | Kd [1]: 0.0452 nM
2 | BMP9 GF-domain (bone morphogenetic protein 9 growth factor domain) (from UniProt Q9UK05 320-429) (ligand) | 0.0481 | 
3 | BMP10 (from UniProt O95393) |  | Kd [3]: 0.0103 nM
4 | BMP10 GF-domain (bone morphogenetic protein 10 growth factor domain) (from UniProt O95393 317-424) (ligand) | 0.0343 | 
